Data from article PMC9482650, “Quantitative fragmentomics allow affinity mapping of interactomes” (Nature Communications, 2022).

T1: TJP3_3, O95049
T1 sequence (O95049 375-456, limits assumed, looked up): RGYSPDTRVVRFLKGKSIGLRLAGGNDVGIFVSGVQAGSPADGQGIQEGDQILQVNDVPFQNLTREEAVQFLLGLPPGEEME

T2: SHANK1, Q9Y566
T2 sequence (Q9Y566 658-767, limits assumed, looked up): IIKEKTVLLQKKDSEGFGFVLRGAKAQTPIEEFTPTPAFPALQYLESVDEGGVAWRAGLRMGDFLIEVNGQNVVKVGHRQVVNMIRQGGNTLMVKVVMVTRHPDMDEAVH

T3: SNTB1, Q13884
T3 sequence (Q13884 107-205, limits assumed, looked up): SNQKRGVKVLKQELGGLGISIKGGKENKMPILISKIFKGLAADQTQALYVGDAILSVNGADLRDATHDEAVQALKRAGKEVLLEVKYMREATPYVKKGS

T4: SYNJ2BP, P57105
T4 sequence (P57105 8-110, limits assumed, looked up): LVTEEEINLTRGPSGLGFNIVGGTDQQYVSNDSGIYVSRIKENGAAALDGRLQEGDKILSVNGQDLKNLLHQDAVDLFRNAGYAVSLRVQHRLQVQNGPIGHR

T5: APBA2_2, Q99767
T5 sequence (Q99767 654-744, limits assumed, looked up): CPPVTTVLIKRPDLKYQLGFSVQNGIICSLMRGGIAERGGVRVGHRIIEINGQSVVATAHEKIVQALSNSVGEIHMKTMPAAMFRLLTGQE

T6: CARD11, Q9BXL7
T6 sequence (Q9BXL7 662-765, limits assumed, looked up): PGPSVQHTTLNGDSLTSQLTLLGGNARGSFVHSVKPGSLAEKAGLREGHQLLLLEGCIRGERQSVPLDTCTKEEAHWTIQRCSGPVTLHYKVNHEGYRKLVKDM

T7: APBA3_1, O96018
T7 sequence (O96018 389-490, limits assumed, looked up): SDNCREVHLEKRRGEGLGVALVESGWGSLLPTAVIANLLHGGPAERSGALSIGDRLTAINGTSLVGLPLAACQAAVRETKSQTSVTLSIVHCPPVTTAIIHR

T8: DLG3_1, Q92796
T8 sequence (Q92796 125-227, limits assumed, looked up): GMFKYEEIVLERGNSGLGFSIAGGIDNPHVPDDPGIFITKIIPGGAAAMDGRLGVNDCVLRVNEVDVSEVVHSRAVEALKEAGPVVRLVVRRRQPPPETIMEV

T9: SNTA1, Q13424
T9 sequence (Q13424 82-180, limits assumed, looked up): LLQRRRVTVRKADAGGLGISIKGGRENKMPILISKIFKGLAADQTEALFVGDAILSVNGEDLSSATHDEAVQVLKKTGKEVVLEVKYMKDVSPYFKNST

T10: DVL3, Q92997
T10 sequence (Q92997 244-331, limits assumed, looked up): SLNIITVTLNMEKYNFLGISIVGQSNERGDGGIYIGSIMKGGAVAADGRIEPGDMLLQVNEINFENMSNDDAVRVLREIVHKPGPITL

T11: SIPA1L2, Q9P2F8
T11 sequence (Q9P2F8 945-1036, limits assumed, looked up): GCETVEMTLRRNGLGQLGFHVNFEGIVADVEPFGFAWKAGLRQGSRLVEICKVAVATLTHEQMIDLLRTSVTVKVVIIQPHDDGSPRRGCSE

T12: GRIP1_5, Q9Y3R0
T12 sequence (Q9Y3R0 568-668, limits assumed, looked up): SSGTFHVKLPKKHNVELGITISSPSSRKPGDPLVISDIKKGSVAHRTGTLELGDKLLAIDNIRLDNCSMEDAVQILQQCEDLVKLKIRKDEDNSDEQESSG

T13: PDZD7_3, Q9H5P4
T13 sequence (Q9H5P4 857-944, limits assumed, looked up): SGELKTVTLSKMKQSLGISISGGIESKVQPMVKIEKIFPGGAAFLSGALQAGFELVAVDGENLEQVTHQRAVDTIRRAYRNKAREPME


The binders below were run against MAST1, Q9Y2H9 (assay: holdup assay). Conditions: plain residues with an end cap or a label only (N-terminal biotin on a linker: ado-ado).
Parameters: key: below the threshold = too weak to quantify, mostly under pKd 3.1 to 4

Chain of MAST1, Q9Y2H9 (Q9Y2H9 962-1065): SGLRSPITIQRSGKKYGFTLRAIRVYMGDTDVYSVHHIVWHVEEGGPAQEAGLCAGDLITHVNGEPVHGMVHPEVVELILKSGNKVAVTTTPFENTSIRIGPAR

pKd	Binder
below the threshold	QHKTQLQTLI [BPIFA2, Q96DR5]

These binders were tested against GRID2IP_2, A4D2P6 (assay: holdup assay). Conditions: plain residues with an end cap or a label only (N-terminal biotin on a linker: ado-ado).
Parameters: key: below the threshold = too weak to quantify, mostly under pKd 3.1 to 4

Chain of GRID2IP_2, A4D2P6 (A4D2P6 272-370): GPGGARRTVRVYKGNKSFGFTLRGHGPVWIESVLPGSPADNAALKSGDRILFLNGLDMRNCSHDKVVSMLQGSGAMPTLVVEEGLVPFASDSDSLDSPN

pKd	Binder
3.93	QHKTQLQTLI [BPIFA2, Q96DR5]

The binders below were run against T1, TJP3_3, O95049 (assay: holdup assay). Conditions: plain residues with an end cap or a label only (N-terminal biotin on a linker: ado-ado).
Parameters: key: below the threshold = too weak to quantify, mostly under pKd 3.1 to 4

pKd	Binder
below the threshold	QHKTQLQTLI [BPIFA2, Q96DR5]

What follows are binders tested against T2, SHANK1, Q9Y566 (assay: holdup assay). Conditions: plain residues with an end cap or a label only (N-terminal biotin on a linker: ado-ado).
Parameters: key: below the threshold = too weak to quantify, mostly under pKd 3.1 to 4

pKd	Binder
4.02	QHKTQLQTLI [BPIFA2, Q96DR5]

The binders below were run against T3, SNTB1, Q13884 (assay: holdup assay). Conditions: plain residues with an end cap or a label only (N-terminal biotin on a linker: ado-ado).
Parameters: key: below the threshold = too weak to quantify, mostly under pKd 3.1 to 4

pKd	Binder
3.49	QHKTQLQTLI [BPIFA2, Q96DR5]

These binders were tested against T4, SYNJ2BP, P57105 (assay: holdup assay). Conditions: plain residues with an end cap or a label only (N-terminal biotin on a linker: ado-ado).
Parameters: key: below the threshold = too weak to quantify, mostly under pKd 3.1 to 4

pKd	Binder
4.12	QHKTQLQTLI [BPIFA2, Q96DR5]

What follows are binders tested against Inadl_4, Q8NI35 (assay: holdup assay). Conditions: plain residues with an end cap or a label only (N-terminal biotin on a linker: ado-ado).
Parameters: key: below the threshold = too weak to quantify, mostly under pKd 3.1 to 4

Chain of Inadl_4, Q8NI35 (Q8NI35 547-651): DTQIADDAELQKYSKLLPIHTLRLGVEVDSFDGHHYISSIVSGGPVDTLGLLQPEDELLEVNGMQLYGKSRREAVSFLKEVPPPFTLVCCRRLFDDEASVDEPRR

pKd	Binder
below the threshold	QHKTQLQTLI [BPIFA2, Q96DR5]

What follows are binders tested against Inadl_6, Q8NI35 (assay: holdup assay). Conditions: plain residues with an end cap or a label only (N-terminal biotin on a linker: ado-ado).
Parameters: key: below the threshold = too weak to quantify, mostly under pKd 3.1 to 4

Chain of Inadl_6, Q8NI35 (Q8NI35 1058-1167): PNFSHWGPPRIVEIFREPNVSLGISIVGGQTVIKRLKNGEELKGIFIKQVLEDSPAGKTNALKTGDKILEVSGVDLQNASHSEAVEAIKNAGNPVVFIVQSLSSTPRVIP

pKd	Binder
3.56	QHKTQLQTLI [BPIFA2, Q96DR5]

The binders below were run against DLG5_1, Q8TDM6 (assay: holdup assay). Conditions: plain residues with an end cap or a label only (N-terminal biotin on a linker: ado-ado).
Parameters: key: below the threshold = too weak to quantify, mostly under pKd 3.1 to 4

Chain of DLG5_1, Q8TDM6 (Q8TDM6 617-713): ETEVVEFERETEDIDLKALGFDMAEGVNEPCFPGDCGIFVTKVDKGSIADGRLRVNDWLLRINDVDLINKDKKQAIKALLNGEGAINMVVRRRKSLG

pKd	Binder
3.48	QHKTQLQTLI [BPIFA2, Q96DR5]

The binders below were run against T5, APBA2_2, Q99767 (assay: holdup assay). Conditions: plain residues with an end cap or a label only (N-terminal biotin on a linker: ado-ado).
Parameters: key: below the threshold = too weak to quantify, mostly under pKd 3.1 to 4

pKd	Binder
below the threshold	QHKTQLQTLI [BPIFA2, Q96DR5]

The binders below were run against GRIP2_4, Q9C0E4 (assay: holdup assay). Conditions: plain residues with an end cap or a label only (N-terminal biotin on a linker: ado-ado).
Parameters: key: below the threshold = too weak to quantify, mostly under pKd 3.1 to 4

Chain of GRIP2_4, Q9C0E4 (Q9C0E4 446-548): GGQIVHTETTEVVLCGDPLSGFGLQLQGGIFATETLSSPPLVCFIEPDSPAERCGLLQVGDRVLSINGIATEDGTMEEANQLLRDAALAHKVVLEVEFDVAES

pKd	Binder
below the threshold	QHKTQLQTLI [BPIFA2, Q96DR5]

Each binder was assayed against T6, CARD11, Q9BXL7 (assay: holdup assay). Conditions: plain residues with an end cap or a label only (N-terminal biotin on a linker: ado-ado).
Parameters: key: below the threshold = too weak to quantify, mostly under pKd 3.1 to 4

pKd	Binder
below the threshold	QHKTQLQTLI [BPIFA2, Q96DR5]

Each binder was assayed against T7, APBA3_1, O96018 (assay: holdup assay). Conditions: plain residues with an end cap or a label only (N-terminal biotin on a linker: ado-ado).
Parameters: key: below the threshold = too weak to quantify, mostly under pKd 3.1 to 4

pKd	Binder
below the threshold	QHKTQLQTLI [BPIFA2, Q96DR5]

Each binder was assayed against DLG1_1, Q12959 (assay: holdup assay). Conditions: plain residues with an end cap or a label only (N-terminal biotin on a linker: ado-ado).
Parameters: key: below the threshold = too weak to quantify, mostly under pKd 3.1 to 4

pKd	Binder
4.34	QHKTQLQTLI [BPIFA2, Q96DR5]

The binders below were run against MAGI2_5, Q86UL8 (assay: holdup assay). Conditions: plain residues with an end cap or a label only (N-terminal biotin on a linker: ado-ado).
Parameters: key: below the threshold = too weak to quantify, mostly under pKd 3.1 to 4

Chain of MAGI2_5, Q86UL8 (Q86UL8 915-1017): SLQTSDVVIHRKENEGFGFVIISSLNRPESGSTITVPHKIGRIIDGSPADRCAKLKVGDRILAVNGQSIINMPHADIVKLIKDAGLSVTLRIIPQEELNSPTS

pKd	Binder
4.78	QHKTQLQTLI [BPIFA2, Q96DR5]

Each binder was assayed against PDLIM1, O00151 (assay: holdup assay). Conditions: plain residues with an end cap or a label only (N-terminal biotin on a linker: ado-ado).
Parameters: key: below the threshold = too weak to quantify, mostly under pKd 3.1 to 4

Chain of PDLIM1, O00151 (O00151 1-87): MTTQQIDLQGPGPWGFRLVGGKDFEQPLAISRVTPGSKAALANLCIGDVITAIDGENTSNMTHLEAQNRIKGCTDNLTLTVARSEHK

pKd	Binder
below the threshold	QHKTQLQTLI [BPIFA2, Q96DR5]

The binders below were run against T8, DLG3_1, Q92796 (assay: holdup assay). Conditions: plain residues with an end cap or a label only (N-terminal biotin on a linker: ado-ado).
Parameters: key: below the threshold = too weak to quantify, mostly under pKd 3.1 to 4

pKd	Binder
3.68	QHKTQLQTLI [BPIFA2, Q96DR5]

These binders were tested against T9, SNTA1, Q13424 (assay: holdup assay). Conditions: plain residues with an end cap or a label only (N-terminal biotin on a linker: ado-ado).
Parameters: key: below the threshold = too weak to quantify, mostly under pKd 3.1 to 4

pKd	Binder
below the threshold	QHKTQLQTLI [BPIFA2, Q96DR5]

The binders below were run against SCRIB_2, Q14160 (assay: holdup assay). Conditions: plain residues with an end cap or a label only (N-terminal biotin on a linker: ado-ado).
Parameters: key: below the threshold = too weak to quantify, mostly under pKd 3.1 to 4

Chain of SCRIB_2, Q14160 (Q14160 857-960): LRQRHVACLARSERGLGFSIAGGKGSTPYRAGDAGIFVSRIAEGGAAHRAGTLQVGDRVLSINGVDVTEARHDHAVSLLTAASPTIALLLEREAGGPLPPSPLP

pKd	Binder
below the threshold	QHKTQLQTLI [BPIFA2, Q96DR5]

What follows are binders tested against HTRA1, Q92743 (assay: holdup assay). Conditions: plain residues with an end cap or a label only (N-terminal biotin on a linker: ado-ado).
Parameters: key: below the threshold = too weak to quantify, mostly under pKd 3.1 to 4

Chain of HTRA1, Q92743 (Q92743 360-477): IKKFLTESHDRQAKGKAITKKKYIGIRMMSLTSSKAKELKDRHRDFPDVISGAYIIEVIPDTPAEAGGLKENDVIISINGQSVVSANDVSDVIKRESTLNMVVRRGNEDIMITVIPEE

pKd	Binder
4.06	QHKTQLQTLI [BPIFA2, Q96DR5]

These binders were tested against T10, DVL3, Q92997 (assay: holdup assay). Conditions: plain residues with an end cap or a label only (N-terminal biotin on a linker: ado-ado).
Parameters: key: below the threshold = too weak to quantify, mostly under pKd 3.1 to 4

pKd	Binder
below the threshold	QHKTQLQTLI [BPIFA2, Q96DR5]

The binders below were run against MAGI2_6, Q86UL8 (assay: holdup assay). Conditions: plain residues with an end cap or a label only (N-terminal biotin on a linker: ado-ado).
Parameters: key: below the threshold = too weak to quantify, mostly under pKd 3.1 to 4

Chain of MAGI2_6, Q86UL8 (Q86UL8 1141-1229): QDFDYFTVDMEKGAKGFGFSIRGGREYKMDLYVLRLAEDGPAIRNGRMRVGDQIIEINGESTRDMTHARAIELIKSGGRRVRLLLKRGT

pKd	Binder
below the threshold	QHKTQLQTLI [BPIFA2, Q96DR5]

These binders were tested against T11, SIPA1L2, Q9P2F8 (assay: holdup assay). Conditions: plain residues with an end cap or a label only (N-terminal biotin on a linker: ado-ado).
Parameters: key: below the threshold = too weak to quantify, mostly under pKd 3.1 to 4

pKd	Binder
below the threshold	QHKTQLQTLI [BPIFA2, Q96DR5]

These binders were tested against T12, GRIP1_5, Q9Y3R0 (assay: holdup assay). Conditions: plain residues with an end cap or a label only (N-terminal biotin on a linker: ado-ado).
Parameters: key: below the threshold = too weak to quantify, mostly under pKd 3.1 to 4

pKd	Binder
below the threshold	QHKTQLQTLI [BPIFA2, Q96DR5]

The binders below were run against T13, PDZD7_3, Q9H5P4 (assay: holdup assay). Conditions: plain residues with an end cap or a label only (N-terminal biotin on a linker: ado-ado).
Parameters: key: below the threshold = too weak to quantify, mostly under pKd 3.1 to 4

pKd	Binder
5.15	QHKTQLQTLI [BPIFA2, Q96DR5]
